From patent US20120231013A1 come the findings set out here.

Where “and” joins values, the source holds several entries; their conditions need not be identical. Equal entries are not always repeated.

Experiment [1] deals with recombinant TIMP-3 (human or mouse; Table 2 does not say which). Description: binding ELISA, Assay 3.
Experiment [2] concerns the target MMP-13 (UniProt P45452). Description: cell-based or functional assay.
Experiment [3] deals with recombinant human TIMP-3 (human) (UniProt P35625). Briefly: cell-based or functional assay.
Chain of recombinant human TIMP-3 (human) (P35625 24-211 limits assumed): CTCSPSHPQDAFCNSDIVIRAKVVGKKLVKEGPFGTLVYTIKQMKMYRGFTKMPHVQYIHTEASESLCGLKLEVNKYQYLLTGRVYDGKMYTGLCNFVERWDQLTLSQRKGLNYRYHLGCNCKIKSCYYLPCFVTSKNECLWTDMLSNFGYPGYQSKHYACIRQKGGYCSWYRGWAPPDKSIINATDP
Experiment [4] shares this target. Briefly: direct ELISA, coated huTIMP-3. (In general: In an ELISA, binding on a coated surface is turned into a signal by an enzyme label.)
For experiment [5], the target named is recombinant mouse TIMP-3 (mouse) (UniProt P39876). Briefly: direct ELISA, coated muTIMP-3.
Chain of recombinant mouse TIMP-3 (mouse) (P39876 24-211 limits assumed): as the sequence (P35625 24-211 limits assumed) above, with T51S, D87E, Q103H, I183S counted along it
In experiment [6] the target is recombinant TIMP-3 (human or mouse; Table 2 does not say which). Briefly: AlphaScreen, biotinylated TIMP-3, Assay 2. On the technique in general: Bead proximity is the source of the signal in Alpha formats.
Experiment [7] deals with recombinant human TIMP-3 (human) (UniProt P35625). Briefly: indirect ELISA, huTIMP-3 captured by anti-TIMP-3 clone 277128.
Experiment [8] concerns the target recombinant TIMP-3 (human or mouse; Table 2 does not say which). Briefly: binding ELISA, Assay 1.
For experiment [9] the target is unchanged. Briefly: AlphaScreen, biotinylated TIMP-3, Assay 1.
Experiment [10] has the same target. Description: binding ELISA, Assay 2.

Chain of recombinant TIMP-3 (human or mouse; Table 2 does not say which) (P35625 24-211): as the sequence (P35625 24-211 limits assumed) above
Chain of LRP-1 Cluster II (C II) (peptide) (chain): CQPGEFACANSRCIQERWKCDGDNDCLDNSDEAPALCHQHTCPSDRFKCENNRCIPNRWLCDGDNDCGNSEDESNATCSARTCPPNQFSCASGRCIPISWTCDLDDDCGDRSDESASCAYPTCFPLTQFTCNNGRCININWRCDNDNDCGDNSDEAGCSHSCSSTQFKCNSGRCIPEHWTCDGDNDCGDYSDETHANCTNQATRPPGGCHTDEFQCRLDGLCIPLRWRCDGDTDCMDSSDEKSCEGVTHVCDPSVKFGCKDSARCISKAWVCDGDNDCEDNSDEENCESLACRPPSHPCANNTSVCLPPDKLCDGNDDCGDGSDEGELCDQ
Chain of LRP-1 peptide LA13-15 (chain): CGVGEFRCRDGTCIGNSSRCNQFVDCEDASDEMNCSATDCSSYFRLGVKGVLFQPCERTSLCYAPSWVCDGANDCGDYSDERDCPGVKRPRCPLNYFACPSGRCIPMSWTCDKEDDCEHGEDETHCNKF

Consider LRP-1 peptide LA8-9, for which the EC50 (as a rule, the midpoint of the concentration-response curve) came to 249 nM in [1], 181 nM in [4], 173 nM in experiment [5] and 113 nM in [7]. Besides, the Direct Inhibition of MMP13 (% decrease), 1000 nM in experiment [2] turned out to be 23%. Also, the % of the inhibitory activity of TIMP-3 + peptide compared to TIMP-3 alone, 16 nM in experiment [3] turned out to be 95%. Also, the % of the inhibitory activity of TIMP-3 + peptide compared to TIMP-3 alone, 80 nM in experiment [3] stood at 91%. In addition, the % of the inhibitory activity of TIMP-3 + peptide compared to TIMP-3 alone, 400 nM in experiment [3] is 91%. The % of the inhibitory activity of TIMP-3 + peptide compared to TIMP-3 alone, 2000 nM in [3] came to 97%. Also, in experiment [6], the total signal (cps) stood at 6000 cps.
Regarding LRP-1 peptide LA26-28, the EC50 in experiment [8] turned out to be 268 nM. Besides, the total signal (cps) stood at 6500 cps in experiment [9] and 9000 cps in experiment [6].
As for LRP-1 peptide LA18-20, in [8], the EC50 was found to be 300 nM. Further, the total signal (cps) in experiment [9] came to 3000 cps.
Turning to LRP-1 peptide LA9, the EC50 in experiment [1] was 1500 nM. Further, in experiment [2], the Direct Inhibition of MMP13 (% decrease), 1000 nM came to 41%. For the same substance, in experiment [3], the % of the inhibitory activity of TIMP-3 + peptide compared to TIMP-3 alone, 16 nM stood at 104%; the % of the inhibitory activity of TIMP-3 + peptide compared to TIMP-3 alone, 80 nM was found to be 104%; the % of the inhibitory activity of TIMP-3 + peptide compared to TIMP-3 alone, 400 nM was 105%; the % of the inhibitory activity of TIMP-3 + peptide compared to TIMP-3 alone, 2000 nM is 107%. For the same substance, the total signal (cps) in experiment [6] is 2000 cps.
Turning to LRP-1 peptide LA21-23, the EC50 in experiment [8] turned out to be 243 nM. Besides, the total signal (cps) in experiment [9] came to 3000 cps.
Consider LRP-1 peptide LA11-13, for which the EC50 in experiment [8] came to 5000 nM. The Direct Inhibition of MMP13 (% decrease), 1000 nM in [2] is -2%. Further, in experiment [9], the total signal (cps) was 1200 cps.
Take LRP-1 peptide LA5: the EC50 in [10] was 1080 nM. Further, the total signal (cps) in [9] was 2200 cps; in [6], 2000 cps.
For LRP-1 Cluster II (C II) (peptide), the results for the EC50 in experiment [8] and in experiment [1] were 45.5 nM and 32.5 nM, respectively. In experiment [6], the total signal (cps) was found to be 100000 cps.
On to LRP-1 peptide LA13-15, for which the total signal (cps) in experiment [9] was found to be 1200 cps.
On the same count and under the same terms, in the case of LRP-1 peptide LA16 it was 2200 cps; in that of LRP-1 peptide LA27, 2200 cps.
LRP-1 peptide LA4-5: the EC50 in [10] came out at 2000 nM. In addition, the total signal (cps) in [9] was 2200 cps; in experiment [6], 2000 cps.
For the substance LRP-1 peptide LA9-10, the EC50 in experiment [1] came out at 3000 nM. For the same substance, in experiment [2], the Direct Inhibition of MMP13 (% decrease), 1000 nM worked out at 34%. Also, in experiment [3], the % of the inhibitory activity of TIMP-3 + peptide compared to TIMP-3 alone, 16 nM was determined as 105%; the % of the inhibitory activity of TIMP-3 + peptide compared to TIMP-3 alone, 80 nM was found to be 107%; the % of the inhibitory activity of TIMP-3 + peptide compared to TIMP-3 alone, 400 nM worked out at 105%; the % of the inhibitory activity of TIMP-3 + peptide compared to TIMP-3 alone, 2000 nM is 107%. The total signal (cps) in experiment [6] came out at 2000 cps.
Turning to LRP-1 peptide LA19, the total signal (cps) in experiment [9] was 2200 cps.
Turning to LRP-1 peptide LA21-31, the EC50 in experiment [8] amounted to 92 nM. In addition, the Direct Inhibition of MMP13 (% decrease), 1000 nM in experiment [2] was found to be 29%. Also, in experiment [9], the total signal (cps) worked out at 30000 cps.
In the case of LRP-1 peptide LA10, in experiment [2], the Direct Inhibition of MMP13 (% decrease), 1000 nM was 49%. In [6], the total signal (cps) is 3000 cps.
For LRP-1 peptide LA29-31, in [8], the EC50 was 1000 nM and 300 nM. The Direct Inhibition of MMP13 (% decrease), 1000 nM in [2] amounted to 5%. Also, in experiment [3], the % of the inhibitory activity of TIMP-3 + peptide compared to TIMP-3 alone, 16 nM came to 96%; the % of the inhibitory activity of TIMP-3 + peptide compared to TIMP-3 alone, 80 nM stood at 99%; the % of the inhibitory activity of TIMP-3 + peptide compared to TIMP-3 alone, 400 nM stood at 97%; the % of the inhibitory activity of TIMP-3 + peptide compared to TIMP-3 alone, 2000 nM came to 96%. In addition, in experiment [9], the total signal (cps) is 1200 cps.
Take LRP-1 peptide LA23: in experiment [9], the total signal (cps) was 2200 cps.
On the same count and under the same terms, in the case of LRP-1 peptide LA18 it was 2200 cps.
For LRP-1 peptide LA8, the EC50 in experiment [1] came to 396 nM. The Direct Inhibition of MMP13 (% decrease), 1000 nM in experiment [2] stood at 49%. Besides, in experiment [3], the % of the inhibitory activity of TIMP-3 + peptide compared to TIMP-3 alone, 16 nM was determined as 101%; the % of the inhibitory activity of TIMP-3 + peptide compared to TIMP-3 alone, 80 nM was 71%; the % of the inhibitory activity of TIMP-3 + peptide compared to TIMP-3 alone, 400 nM was determined as 74%; the % of the inhibitory activity of TIMP-3 + peptide compared to TIMP-3 alone, 2000 nM came to 107%. Moreover, the EC50 in experiment [4] turned out to be 292 nM. Besides, the EC50 in experiment [5] stood at 255 nM. Also, the total signal (cps) in [6] amounted to 2000 cps. Besides, the EC50 in experiment [7] is 198 nM.
As for LRP-1 peptide LA3, the total signal (cps) is 2200 cps in experiment [9] and 2000 cps in experiment [6].
